From US12679878B2, “CRF2 receptor agonists and their use in therapy” (SANOFI, priority 2020, dated 2026)
Starred links: 1 amine or outer side, 2 acyl side, 3 side chain; linkers in the order of their positions; H or OH if unused. Non-standard residues stand in square brackets, D forms with d. Groups on a side chain read outwards from the residue. No end group written: not given here. *: point of attachment. C20 diacid = O=C(O)CCCCCCCCCCCCCCCCCCC(=O)*; C18 diacid = O=C(O)CCCCCCCCCCCCCCCCC(=O)*; γGlu = O=C(O)[C@H](CCC(=O)[*:2])N[*:1]; AEEA = NCCOCCOCC(=O)O; Aib = CC(C)(N)C(=O)O

T1: anti-target CRF1R receptor (UniProt P34998 24-415, limits assumed)
T1 sequence (looked up): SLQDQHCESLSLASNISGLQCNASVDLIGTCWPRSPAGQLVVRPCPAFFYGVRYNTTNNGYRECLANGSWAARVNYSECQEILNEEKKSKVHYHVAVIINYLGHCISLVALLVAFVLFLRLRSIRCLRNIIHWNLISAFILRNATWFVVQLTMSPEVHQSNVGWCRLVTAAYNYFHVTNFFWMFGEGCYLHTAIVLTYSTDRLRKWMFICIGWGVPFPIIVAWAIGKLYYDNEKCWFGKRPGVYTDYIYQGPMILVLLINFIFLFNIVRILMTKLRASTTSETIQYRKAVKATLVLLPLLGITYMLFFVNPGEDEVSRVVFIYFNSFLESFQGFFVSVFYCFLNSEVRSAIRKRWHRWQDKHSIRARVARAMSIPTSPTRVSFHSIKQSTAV

T2: endogenous human CRF2 (NCI-H82 cells) (human, UniProt Q13324 20-411)
T2 sequence (looked up): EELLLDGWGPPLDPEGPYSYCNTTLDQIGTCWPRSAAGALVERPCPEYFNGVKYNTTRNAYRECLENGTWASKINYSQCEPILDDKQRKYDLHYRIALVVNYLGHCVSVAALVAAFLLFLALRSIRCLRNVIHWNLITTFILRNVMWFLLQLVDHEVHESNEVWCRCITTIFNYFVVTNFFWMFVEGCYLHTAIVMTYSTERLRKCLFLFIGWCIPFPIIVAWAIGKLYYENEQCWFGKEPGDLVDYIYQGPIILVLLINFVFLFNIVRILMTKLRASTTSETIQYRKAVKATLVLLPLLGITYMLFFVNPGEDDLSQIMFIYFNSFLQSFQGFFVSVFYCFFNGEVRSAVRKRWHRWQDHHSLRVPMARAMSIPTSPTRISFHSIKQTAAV

B1: peptide of SEQ ID NO: 137 (peptide)
peptide: IVLSLD[dV]PIKLK([AEEA-AEEA-γGlu-C18 diacid])QILLKQERQKKQREQAEKNKQILEQV-NH2
modifications: N-terminus assumed
SMILES: CC[C@H](C)[C@H](N)C(=O)N[C@H](C(=O)N[C@@H](CC(C)C)C(=O)N[C@@H](CO)C(=O)N[C@@H](CC(C)C)C(=O)N[C@@H](CC(=O)O)C(=O)N[C@@H](C(=O)N1CCC[C@H]1C(=O)N[C@H](C(=O)N[C@@H](CCCCN)C(=O)N[C@@H](CC(C)C)C(=O)N[C@@H](CCCCNC(=O)COCCOCCNC(=O)COCCOCCNC(=O)CC[C@H](NC(=O)CCCCCCCCCCCCCCCCC(=O)O)C(=O)O)C(=O)N[C@@H](CCC(N)=O)C(=O)N[C@H](C(=O)N[C@@H](CC(C)C)C(=O)N[C@@H](CC(C)C)C(=O)N[C@@H](CCCCN)C(=O)N[C@@H](CCC(N)=O)C(=O)N[C@@H](CCC(=O)O)C(=O)N[C@@H](CCCNC(=N)N)C(=O)N[C@@H](CCC(N)=O)C(=O)N[C@@H](CCCCN)C(=O)N[C@@H](CCCCN)C(=O)N[C@@H](CCC(N)=O)C(=O)N[C@@H](CCCNC(=N)N)C(=O)N[C@@H](CCC(=O)O)C(=O)N[C@@H](CCC(N)=O)C(=O)N[C@@H](C)C(=O)N[C@@H](CCC(=O)O)C(=O)N[C@@H](CCCCN)C(=O)N[C@@H](CC(N)=O)C(=O)N[C@@H](CCCCN)C(=O)N[C@@H](CCC(N)=O)C(=O)N[C@H](C(=O)N[C@@H](CC(C)C)C(=O)N[C@@H](CCC(=O)O)C(=O)N[C@@H](CCC(N)=O)C(=O)N[C@H](C(N)=O)C(C)C)[C@@H](C)CC)[C@@H](C)CC)[C@@H](C)CC)C(C)C)C(C)C
B2: peptide of SEQ ID NO: 81 (peptide)
peptide: IVLSLDVPIKLK([AEEA-AEEA-γGlu-C20 diacid])QILLEQEKQK[Aib]QREQAETNKQILAQV-NH2
modifications: N-terminus assumed
SMILES: CC[C@H](C)[C@H](N)C(=O)N[C@H](C(=O)N[C@@H](CC(C)C)C(=O)N[C@@H](CO)C(=O)N[C@@H](CC(C)C)C(=O)N[C@@H](CC(=O)O)C(=O)N[C@H](C(=O)N1CCC[C@H]1C(=O)N[C@H](C(=O)N[C@@H](CCCCN)C(=O)N[C@@H](CC(C)C)C(=O)N[C@@H](CCCCNC(=O)COCCOCCNC(=O)COCCOCCNC(=O)CC[C@H](NC(=O)CCCCCCCCCCCCCCCCCCC(=O)O)C(=O)O)C(=O)N[C@@H](CCC(N)=O)C(=O)N[C@H](C(=O)N[C@@H](CC(C)C)C(=O)N[C@@H](CC(C)C)C(=O)N[C@@H](CCC(=O)O)C(=O)N[C@@H](CCC(N)=O)C(=O)N[C@@H](CCC(=O)O)C(=O)N[C@@H](CCCCN)C(=O)N[C@@H](CCC(N)=O)C(=O)N[C@@H](CCCCN)C(=O)NC(C)(C)C(=O)N[C@@H](CCC(N)=O)C(=O)N[C@@H](CCCNC(=N)N)C(=O)N[C@@H](CCC(=O)O)C(=O)N[C@@H](CCC(N)=O)C(=O)N[C@@H](C)C(=O)N[C@@H](CCC(=O)O)C(=O)N[C@H](C(=O)N[C@@H](CC(N)=O)C(=O)N[C@@H](CCCCN)C(=O)N[C@@H](CCC(N)=O)C(=O)N[C@H](C(=O)N[C@@H](CC(C)C)C(=O)N[C@@H](C)C(=O)N[C@@H](CCC(N)=O)C(=O)N[C@H](C(N)=O)C(C)C)[C@@H](C)CC)[C@@H](C)O)[C@@H](C)CC)[C@@H](C)CC)C(C)C)C(C)C
B3: peptide of SEQ ID NO: 135 (peptide)
peptide: IVLSLD[dV]PIKLK([AEEA-AEEA-γGlu-C18 diacid])QILLKQERQK[Aib]QRQQAEKNKQILAQV-NH2
modifications: N-terminus assumed
SMILES: CC[C@H](C)[C@H](N)C(=O)N[C@H](C(=O)N[C@@H](CC(C)C)C(=O)N[C@@H](CO)C(=O)N[C@@H](CC(C)C)C(=O)N[C@@H](CC(=O)O)C(=O)N[C@@H](C(=O)N1CCC[C@H]1C(=O)N[C@H](C(=O)N[C@@H](CCCCN)C(=O)N[C@@H](CC(C)C)C(=O)N[C@@H](CCCCNC(=O)COCCOCCNC(=O)COCCOCCNC(=O)CC[C@H](NC(=O)CCCCCCCCCCCCCCCCC(=O)O)C(=O)O)C(=O)N[C@@H](CCC(N)=O)C(=O)N[C@H](C(=O)N[C@@H](CC(C)C)C(=O)N[C@@H](CC(C)C)C(=O)N[C@@H](CCCCN)C(=O)N[C@@H](CCC(N)=O)C(=O)N[C@@H](CCC(=O)O)C(=O)N[C@@H](CCCNC(=N)N)C(=O)N[C@@H](CCC(N)=O)C(=O)N[C@@H](CCCCN)C(=O)NC(C)(C)C(=O)N[C@@H](CCC(N)=O)C(=O)N[C@@H](CCCNC(=N)N)C(=O)N[C@@H](CCC(N)=O)C(=O)N[C@@H](CCC(N)=O)C(=O)N[C@@H](C)C(=O)N[C@@H](CCC(=O)O)C(=O)N[C@@H](CCCCN)C(=O)N[C@@H](CC(N)=O)C(=O)N[C@@H](CCCCN)C(=O)N[C@@H](CCC(N)=O)C(=O)N[C@H](C(=O)N[C@@H](CC(C)C)C(=O)N[C@@H](C)C(=O)N[C@@H](CCC(N)=O)C(=O)N[C@H](C(N)=O)C(C)C)[C@@H](C)CC)[C@@H](C)CC)[C@@H](C)CC)C(C)C)C(C)C
B4: peptide of SEQ ID NO: 130 (peptide)
peptide: IVLSLD[dV]PIKLK([AEEA-AEEA-γGlu-C18 diacid])QILLKQERQK[Aib]QREQAEKNKQILAQV-NH2
modifications: N-terminus assumed
SMILES: CC[C@H](C)[C@H](N)C(=O)N[C@H](C(=O)N[C@@H](CC(C)C)C(=O)N[C@@H](CO)C(=O)N[C@@H](CC(C)C)C(=O)N[C@@H](CC(=O)O)C(=O)N[C@@H](C(=O)N1CCC[C@H]1C(=O)N[C@H](C(=O)N[C@@H](CCCCN)C(=O)N[C@@H](CC(C)C)C(=O)N[C@@H](CCCCNC(=O)COCCOCCNC(=O)COCCOCCNC(=O)CC[C@H](NC(=O)CCCCCCCCCCCCCCCCC(=O)O)C(=O)O)C(=O)N[C@@H](CCC(N)=O)C(=O)N[C@H](C(=O)N[C@@H](CC(C)C)C(=O)N[C@@H](CC(C)C)C(=O)N[C@@H](CCCCN)C(=O)N[C@@H](CCC(N)=O)C(=O)N[C@@H](CCC(=O)O)C(=O)N[C@@H](CCCNC(=N)N)C(=O)N[C@@H](CCC(N)=O)C(=O)N[C@@H](CCCCN)C(=O)NC(C)(C)C(=O)N[C@@H](CCC(N)=O)C(=O)N[C@@H](CCCNC(=N)N)C(=O)N[C@@H](CCC(=O)O)C(=O)N[C@@H](CCC(N)=O)C(=O)N[C@@H](C)C(=O)N[C@@H](CCC(=O)O)C(=O)N[C@@H](CCCCN)C(=O)N[C@@H](CC(N)=O)C(=O)N[C@@H](CCCCN)C(=O)N[C@@H](CCC(N)=O)C(=O)N[C@H](C(=O)N[C@@H](CC(C)C)C(=O)N[C@@H](C)C(=O)N[C@@H](CCC(N)=O)C(=O)N[C@H](C(N)=O)C(C)C)[C@@H](C)CC)[C@@H](C)CC)[C@@H](C)CC)C(C)C)C(C)C
B5: peptide of SEQ ID NO: 101 (peptide)
peptide: IVLSLDVPIKLK([AEEA-AEEA-γGlu-C18 diacid])KILLKQERQKK[Aib]REQAETNKQILERV-NH2
modifications: N-terminus assumed
SMILES: CC[C@H](C)[C@H](N)C(=O)N[C@H](C(=O)N[C@@H](CC(C)C)C(=O)N[C@@H](CO)C(=O)N[C@@H](CC(C)C)C(=O)N[C@@H](CC(=O)O)C(=O)N[C@H](C(=O)N1CCC[C@H]1C(=O)N[C@H](C(=O)N[C@@H](CCCCN)C(=O)N[C@@H](CC(C)C)C(=O)N[C@@H](CCCCNC(=O)COCCOCCNC(=O)COCCOCCNC(=O)CC[C@H](NC(=O)CCCCCCCCCCCCCCCCC(=O)O)C(=O)O)C(=O)N[C@@H](CCCCN)C(=O)N[C@H](C(=O)N[C@@H](CC(C)C)C(=O)N[C@@H](CC(C)C)C(=O)N[C@@H](CCCCN)C(=O)N[C@@H](CCC(N)=O)C(=O)N[C@@H](CCC(=O)O)C(=O)N[C@@H](CCCNC(=N)N)C(=O)N[C@@H](CCC(N)=O)C(=O)N[C@@H](CCCCN)C(=O)N[C@@H](CCCCN)C(=O)NC(C)(C)C(=O)N[C@@H](CCCNC(=N)N)C(=O)N[C@@H](CCC(=O)O)C(=O)N[C@@H](CCC(N)=O)C(=O)N[C@@H](C)C(=O)N[C@@H](CCC(=O)O)C(=O)N[C@H](C(=O)N[C@@H](CC(N)=O)C(=O)N[C@@H](CCCCN)C(=O)N[C@@H](CCC(N)=O)C(=O)N[C@H](C(=O)N[C@@H](CC(C)C)C(=O)N[C@@H](CCC(=O)O)C(=O)N[C@@H](CCCNC(=N)N)C(=O)N[C@H](C(N)=O)C(C)C)[C@@H](C)CC)[C@@H](C)O)[C@@H](C)CC)[C@@H](C)CC)C(C)C)C(C)C

biological target: T1, anti-target CRF1R receptor; test: cell-based or functional assay

Row | EC50[nM] 0% HSA (cAMP, CRF1R-overexpression CHO cells) | Emax (%) (cAMP, CRF1R-overexpression CHO cells) | Binder
1 | > 1000 nM | 22.5% | B1
2 | > 1000 nM | 23.3% | B2
3 | > 1000 nM | 28.4% | B3
4 | > 1000 nM | 20.3% | B4
5 | > 1000 nM | -0.34% | B5

biological target: rat CRF2R α receptor (rat, UniProt P47866 20-411); test: cell-based or functional assay

Row | EC50 [nM], 0% HSA (cAMP, A7R5 cells) | Binder
6 | 0.14 nM | B1
7 | 0.94 nM | B2
8 | 0.13 nM | B3
9 | 0.13 nM | B4
10 | 1.02 nM | B5

biological target: T2, endogenous human CRF2 (NCI-H82 cells); test: cell-based or functional assay

Row | EC50 [nM] (cAMP, NCI-H82 cells) | Binder
11 | 120 nM | B1
12 | 110 nM | B2
13 | 110 nM | B3
14 | 4.3 nM | B4
15 | 4.1 nM | B5
